According to patent US20250179144A1 (UNIVERSITY OF MELBOURNE, published 2025):

T1: BTN2A1 ectodomain homodimer, disulfide-linked (C-terminal Cys247, acidic or basic leucine zipper) (human, UniProt Q7KYR7 29-248; Q7KYR7 29-248)
T1 construct: Biotinylated and immobilised on a streptavidin chip in SPR; also called immobilized BTN2A1 homodimer; immobilised BTN2A1 ectodomain homodimer; not shown: linker and acidic leucine zipper; linker and basic leucine zipper
T1 sequence 1: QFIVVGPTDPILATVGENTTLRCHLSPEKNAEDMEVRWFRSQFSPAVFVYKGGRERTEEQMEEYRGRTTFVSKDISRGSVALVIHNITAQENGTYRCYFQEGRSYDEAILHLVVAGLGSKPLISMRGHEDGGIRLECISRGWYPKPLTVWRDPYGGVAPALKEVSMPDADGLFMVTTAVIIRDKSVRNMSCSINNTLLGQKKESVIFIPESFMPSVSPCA
T1 sequence 2: T1 sequence 1

B1: monomeric BTN3A1 IgV domain (ligand)
chain: not shown
B2: soluble BTN3A1 ectodomain (IgV-IgC), homodimer (ligand)
chain: not shown
notes: C-terminal biotin ligase (AviTag) and His6 tags; Analyte or immobilised ligand in SPR; streptavidin-PE tetramer in flow cytometry; also called BTN3A1 ectodomain homodimer; full-length BTN3A1 ectodomain
B3: soluble BTN2A1 ectodomain lacking Cys247 (monomeric) (ligand)
chain: QFIVVGPTDPILATVGENTTLRCHLSPEKNAEDMEVRWFRSQFSPAVFVYKGGRERTEEQMEEYRGRTTFVSKDISRGSVALVIHNITAQENGTYRCYFQEGRSYDEAILHLVVAGLGSKPLISMRGHEDGGIRLECISRGWYPKPLTVWRDPYGGVAPALKEVSMPDADGLFMVTTAVIIRDKSVRNMSCSINNTLLGQKKESVIFIPESFMPSVSP
notes: C-terminal biotin ligase (AviTag) and His6 tags; Used as SPR analyte and in crystals; also called monomeric BTN2A1 ectodomain; full-length BTN2A1 ectodomain

How the values were obtained:
[1] = biological target: T1, BTN2A1 ectodomain homodimer, …; assay: SPR, equilibrium; BTN2A1 homodimer immobilised, soluble BTN3A1 IgV domain injected
Method: (§1) SPR experiments were conducted at 25° C. on a Biacore T200 instrument (GE Healthcare) using 10 mM HEPES-HCl (pH 7.4), 150 mM NaCl, 3 mM EDTA, and 0.05% Tween 20 buffer. Biotinylated BTN ectodomains were immobilized to 1,500-2,000 resonance units (RU) on a Biacore sensor chip SA pre-immobilized with streptavidin. Soluble BTN molecules or G115 γδTCR were two-fold serially diluted and simultaneously injected over test and control surfaces at a rate of 30 μl/min. After subtraction of data from the control flow cell (BTN1A1) and blank injections, interactions were analyzed using Biacore T200 evaluation software (GE Healthcare), Scrubber (Biologic) and Prism version 9 (GraphPad), and equilibrium dissociation constants were derived at equilibrium.

[2] = biological target: B2; assay: SPR, soluble monomeric BTN3A1 IgV domain over immobilised BTN3A1 homodimer
Method: SPR experiments were conducted at 25° C. on a Biacore T200 instrument (GE Healthcare) using 10 mM HEPES-HCl (pH 7.4), 150 mM NaCl, 3 mM EDTA, and 0.05% Tween 20 buffer. Biotinylated BTN ectodomains were immobilized to 1,500-2,000 resonance units (RU) on a Biacore sensor chip SA pre-immobilized with streptavidin. Soluble BTN molecules or G115 γδTCR were two-fold serially diluted and simultaneously injected over test and control surfaces at a rate of 30 μl/min.

[3] = biological target: T1, BTN2A1 ectodomain homodimer, …; assay: SPR, equilibrium; disulfide-linked BTN2A1 homodimer immobilised, soluble BTN3A1 ectodomain injected
Method: as §1

[4] = biological target: B2; assay: SPR, equilibrium; BTN3A1 homodimer immobilised, soluble monomeric BTN2A1 ectodomain injected
Method: as §1

[5] = biological target: T1, BTN2A1 ectodomain homodimer, …; assay: SPR; BTN2A1 ectodomain homodimer immobilised, soluble BTN2A1 ectodomain injected
Method: as §1

## B1
[1]
  Kd: 1100 µM
[2]
  binding result: no binding (tested: 1,590 µM)

## B2
[3]
  Kd: 500 µM

## B3
[4]
  Kd: ~1800 µM
[5]
  binding result: no binding
